Assay results reported in US20210139605A1 (AGENCY FOR SCIENCE TECHNOLOGY AND RESEARCH, published 2021).

Assays:
[1] = target: T1, human HER-2 protein (soluble / recombinant, used in SPR) (human, UniProt P04626 23-652); assay: SPR, immobilized HER2 protein
T1 construct: also called immobilized HER2 protein; recombinant HER-2

[2] = target: T1, human HER-2 protein (soluble / …); assay: SPR, human HER2 immobilised, Fab flown, 1:1 Langmuir model
Protocol: Rate constants of association, dissociation (kₐ, kd) and the equilibrium dissociation constants (KD) were determined for anti-HER2 Fab molecules. Human HER2 protein (50 μg/mL) was immobilised on the SPR sensor chip and was exposed to five different concentrations of each Fab in 2- or 3-fold dilutions over the flow cells. 1:1 Langmuir model was used to derive the constants.

| Binder | koff [1] [s⁻¹] | also measured |
| --- | --- | --- |
| PFD4 Fab (Fab, V domains shown, Printed entries run through CL and CH1 (Fab chains); Label D4 tied to PFD4 by inference) VH: QVQLVQSGGGLVQPGGSLRLSCSASGFTFSSYAMHWVRQAPGKGLEYVSAISSNGGSTYYADSVKGRFTISRDNSKNTLYLQMSSLRAEDTAVYYCARSRGYYGMDVWGQGTTVTVSS VL: not shown | 0.0342 | – |
| PFE2 Fab (Fab, V domains shown, Printed entries run through CL and CH1 (Fab chains); Label E2 tied to PFE2 by inference) VH: EVQLVQSGGGVVQPGRSLRLSCAASGFTFSSYAMHWVRQAPGKGLEWVAVISYDESNKYYADSVKGRFTISRDNSKNTLYLQMNSLRAEDTAVYYCAREPSGSWSYLYYYYYGMDVWGQGTTVTVSS VL: DVVMTQSPLSLPVTPGEPASISCRSSQSLLRSDGYNFVDWYLQKAGQSPQLLIHLGSDRASGVPDRFSGSGSGTDFTLRISRVEAEDVGVYYCMQALQTPRTFGQGTKVEIKR | 0.0187 | – |
| PFA1 Fab (Fab, V domains shown, Entries are labelled light/heavy chain VD but as printed run through CL and CH1 (Fab chains); Label A1 tied to PFA1 by inference) VH: EVQLVQSGGGVVQPGRSLRLSCAASGFTFSSYGMHWVRQAPGKGLEWVAVISYDGSNKYYADSVKGRFTISRDNSKNTLFLQMNSLRAEDTAVYYCARDLFAVVGYYYYYGMDVWGQGTTVTVSS VL: EIVLTQSPFSLPVTPGEPASISCRSSQSLLHSNGFNYLDWYLQKPGQSPQLLIYLGSNRASGVPDRFSGSGSGTDFTLKISRVEAEDVGVYYCMQGLQTPYTFGQGTKLEIKR | 0.00415 | – |
| PFF2 Fab (Fab, V domains shown, Printed entries run through CL and CH1 (Fab chains); Label F2 tied to PFF2 by inference) VH: QMQLVQSGGGVVQPGRSLRLSCAASGFSFKNYGMHWVRQAPGKGLEWVAFISYDGTNKYYADSVKGRFTISRDNSKNTLYLQMNSLRAEDTAVYYCAKHYGDYYYYYGMDVWGQGTTVTVSS VL: not shown | 0.0047 | – |
| PFB3 Fab (Fab, V domains shown, Printed entries run through CL and CH1 (Fab chains); Label B3 tied to PFB3 by inference) VH: QVQLQESGGGLVQPGGSLRLSCAASGFTFSSYAMSWVRQAPGKGLEWVSAISGSGGSTYYADSVKGRFTISRDNSKNTVYLQMNSLRAEDTAVYYCARTYYDFWSGRVGAFDIWGQGTTVTVSS VL: not shown | 0.0102 | – |
| PFD1 Fab (Fab, V domains shown, Printed entries run through CL and CH1 (Fab chains); Label D1 tied to PFD1 by inference) VH: EVQLVQSGGGVVQPGRSLRLSCAASGFTFSSYGMHWVRQAPGKGLEWVAVISYDGSNKYYADSVKGRFTISRDNAKNSLYLQMNSLRAEDTAVYYCARSRGYSGYDNWGQGTLVTVSS VL: not shown | 0.0714 | – |
| PFE5 Fab (Fab, V domains shown, Printed entries run through CL and CH1 (Fab chains); Label E5 tied to PFE5 by inference) VH: EVQLVQSGGGVVQPGRSLRLSCAASGFTFSSYAMHWVRQAPGKGLEWVAVISYDGSNKYYADSVKGRFTISRDNSKNTLYLQMNSLRAEDTAVYYCARSRGYYGMDVWGQGTTVTVSS VL: DIQMTQSPSSLSASVGDRVTITCRASQGISSWLAWYQQKPGKAPKLLIYAASSLQSGVPSRFSGSGSGTDFTLTISSLQPEDFATYYCQQANSFPPTFGPGTKVDIKR | 0.00152 | – |
| PFB2 Fab (Fab, V domains shown, Printed entries run through CL and CH1 (Fab chains); Label B2 tied to PFB2 by inference) VH: EVQLVQSGAEVKKPGASVKVSCKASGYTFTSYGISWVRQAPGEGLEWMGWISAYNGNTNYAQKLQGRVTMTTDTSTSTAYMELRSLRSDDTAVYYCARDWGSSWSDYWGQGTLVTVSS VL: ETTLTQSPATLSLSPGERATLSCRASQSVRNNLAWYQHKPGQAPRLLIYYASTRATGIPDRFSGSGSGTDFTLTISRLEPEDFALYYCQHYGSSRTFGQGTKVEIKR | 0.000177 | – |
| PFF3 Fab (Fab, V domains shown, Printed entries run through CL and CH1 (Fab chains); Label F3 tied to PFF3 by inference) VH: QVQLVQSGGGLVQPGGSLRLSCSASGFTFSSYAIHWVRQAPGKGLEYVSAISSNGGSTYYADSVKGRFTISRDNSKNTLYLQMNSLRAEDTAVYYCARVYGYGLHYYGMDVWGQGTTVTVSS VL: not shown | 0.00324 | – |
| PFB1 Fab (Fab, V domains shown, Printed entries run through CL and CH1 (Fab chains); Label B1 tied to PFB1 by inference) VH: QVQLQESGGGLVQPGGSLRLSCAASGFTFSSFAMNWVRQAPGKGLEWVSTIGGSGDSTFYADPVKGRFTVSRDNSKNTLYLQMNSLRAEDTAVYYCAQAYGSGGHYFFAYWGQGTLVTVSS VL: DVVMTQSPLSLPVTPGEPASISCRSSQSLLHSNGNTYLDWYLQKPGQSPQVLIYSGSNRASGVPDRFSGSGSGTDFTLKISRVEAEDVGVYYCMQGTHWPPTFGQGTKVEIKR | 0.00565 | – |
| clone A3 Fab (P1A3, from the phage display Fab library) (Fab, V domains shown) VH: EVQLVQSGTEVKKPGASVRVSCKSSGYTFTSYYIHWVRQAPGQGLEWMAIINPGNGDTNYAQRFQGRVTMTRDTSTSTVYMELRSLRSDDTAVYFCAREIASYSGSYYDYWGQGTLVTVSS VL: QAVVTQEPSLSVSPGGTVTLTCGLSSGSVSTGHYASWYQQTPGQAPRTLFYNTNTRSSGVPDRFSGSIVGNKAALTITGAQADDESDYYCVLYVGDGIWVFGGGTKLTVLG | 0.00416 | – |
| PFD2 Fab (Fab, V domains shown, Printed entries run through CL and CH1 (Fab chains); Label D2 tied to PFD2 by inference) VH: QVQLQQWGAGLLKPSETLSLTCAVYGGSFSGYYWSWIRQPPGKGLEWIGEINHSGSTNYNPSLKSRVTISVDTSKNQFSLKLSSVTAADTAVYYCARGLPYYYFDYWGQGTLVTVSS VL: QSVVTQPPSVSGAPGQRVTISCTGRSANIGGFDVQWYRQLPGTAPQLLIYDNSNRPSGVPDRFSGSKSGTSATLAISGLQTGDEADYYCGTWDSYLNIWVFGGGTKLTVLS | 0.00486 | – |
| PFA2 Fab (Fab, V domains shown, Printed entries run through CL and CH1 (Fab chains); Label A2 tied to PFA2 by inference) VH: QVQLQQSGPGLVKPSQTLSLTCAISGESVSSAAAAWNWIRQSPSRGLEWLGRTYYRSKWYSEYAVSVKSRITINGDTSKNQVSLHLNAVTPEDTAIYYCVRGSIFDVWGQGTMVTVSS VL: EIVLTQSPLSLPVTPGEPASISCRSSQSLLHSDGNKYLDWYLQKPGQSPQLLIYLGSNRASGVPERFSGSGSGTDFTLKISRVEAEDVGVYYCMLGTHWPPMYIFGQGTKLEIKR | 0.00218 | – |
| PFG4 Fab (Fab, V domains shown, Printed entries run through CL and CH1 (Fab chains); Label G4 tied to PFG4 by inference) VH: QVQLQQSGAEVKKPGSSVKVSCKASGGTFSSYAISWVRQAPGQGLEWMGGIIPIFGTANYAQKFQGRVTITADKSTSTAYMELSSLRSEDTAVYYCARGADWNSDYWGQGTLVTVSS VL: QSVLTQPPSVSKALRQTATLTCTGNNNNVGFAGAAWFLQHQGHPPKLLAYRNNDRPSGISERFSASRSGNTASLTITGLQPEDEADYYCSAWDSSLKVQVFGGGTKLTVLG | 0.00063 | – |
| PFG1 Fab (Fab, V domains shown, Printed entries run through CL and CH1 (Fab chains); Label G1 tied to PFG1 by inference) VH: EVQLVQSGGGVVQPGRSLRLSCAASGFTFSSYGMHWVRQAPGKGLEWVAVIWYDGSNKYYADSVKGRFTISRDNSKNTLYLQMNSLRAEDTAVYYCATMTTEDYWGQGTLVTVSS VL: QAVLTQPSSLSASPGASASLTCTLRSGINVGTYRIYWYQQKPGSPPQYLLRYKSDSDKQQGSGVPSRFSGSKDASANAGILLISGLQSEDEADYYCMIWHSSAWVFGGGTKLTVLG | 0.000324 | – |
| PFG2 Fab (Fab, V domains shown, Printed entries run through CL and CH1 (Fab chains); Label G2 tied to PFG2 by inference) VH: EVQLVQSGGGLVQPGGSLRLSCAASGFTFSSYAMSWVRQAPGKGLEWVSSISSSSSYIYYADSVKGRFTISRDNAKNSLYLQMNSLRAEDTAVYYCARDGSAWSRPYWGQGTLVTVSS VL: EIVLTQSPATLSLSPGERATLSCRASQSVSSYLAWYQQKPGQAPRLLIYDASNRATGIPARFSGSGSGTDFTLTISSLEPEDFAVYYCQQRSNWPLTFGGGTKVEIKR | 0.000499 | – |
| PFC3 Fab (Fab, V domains shown, Printed entries run through CL and CH1 (Fab chains); Label C3 tied to PFC3 by inference) VH: QVQLVQSGGGLVQPGGSLRLSCAASGFTFSSYAMSWVRQAPGKGLEWVSGINWNGGSTGYADSVKGRFTISRDNSKNTLYLQMNSLRAEDTAVYYCAKGLVPAASMDVWGQGTTVTVSS VL: not shown | 0.0528 | Kd [2]: 15.3 nM; koff [2]: 0.063 s⁻¹; kon [2]: 4.11e+06 M⁻¹ s⁻¹ |
| PFB5 Fab (Fab, V domains shown, Printed entries run through CL and CH1 (Fab chains); Label B5 tied to PFB5 by inference) VH: EVQLVQSGAEVKKPGSSVKVSCKASGGTFSSYAISWVRQAPGQGLEWMGGIIPIFGTANYAQKFQGRVTITADESTSTAYMELSSLRSEDTAVYYCARGRGSGYPDTWFWFDPWGQGTLVTVSS VL: not shown | 0.017 | Kd [2]: 112 nM; koff [2]: 0.02 s⁻¹; kon [2]: 176000 M⁻¹ s⁻¹ |
| clone C5 Fab (P1C5, from the phage display Fab library) (Fab, V domains shown) VH: QVQLQESGPGLVKPSETLSLTCTVSGGSISSSSYYWGWIRQPPGKGLEWIGSIYYSGSTYYNPSLKSRVTISVDTSKNQFSLKLSSVTAADTAVYYCARYAPDSSGYLVAFDIWGQGTMVTVSS VL: QTVVTQEPSFSVSPGGTVTLTCGLSSGSVSTGYYPSWYQQTPGQAPRTLIYSTNSRSSGVPDRFSGSILGNKAALTITGAQADDESDYYCVLYMGSGISVFGGGTKLTVLG | 0.00448 | – |
| clone E4 Fab (P1E4, from the phage display Fab library) (Fab, V domains shown) VH: QVQLQQWGAGLLKPSETLSLTCAVYGGSFSGYYWSWIRQPPGKGLEWIGEINHSGSTNYNPSLKSRVTISVDTSKNQFSLKLSSVTTADTAVYYCARMGINSGGYLYGMDVWGQGTTVTVSS VL: QTVVTQEPSFSVSPGGTVTLTCGLSSGSVSTSYYPSWYQQIPGQAPRTLIYTTNIRSSGVPDRFGGSILGNKAALTITGAQAEDESDYYCMLYMGSGIWVFGGGTKLTVLG | 0.00181 | – |
| clone F1 Fab (P1F1, from the phage display Fab library) (Fab, V domains shown) VH: QVQLVESGPGLVKPSGTLSLTCAVSGGSISSSNWWSWVRQPPGKGLEWIGEIYHSGSTNYNPSLKSRVTISVDTSKNQFSLKLSSVTAADTAVYYCARMGANSGGYLYGMDVWGQGTTVTVSS VL: QTVVTQEPSFSVSPGGTVTLTCGLSSGSVSTSYYPSWYQQTPGQAPRTLIYSTNTRSSGVPDRFSGSILGNKAALTITGAQADDESDYYCVLYMGSGIWVFGGGTKLTVLG | 0.00502 | – |
| PFD3 Fab (Fab, V domains shown, Printed entries run through CL and CH1 (Fab chains); Label D3 tied to PFD3 by inference) VH: EVQLVQSGAEVKKPGESLKISCKGSGYSFTSYWIGWVRQMPGKGLEWMGIIYPGDSDTRYSPSFQGQVTISADKSISTAYLQWSSLKASDTAMYYCARLGYGVPLPEYFDLWGRGTLVTVSS VL: QAVVIQEPSFSVSPGGTVTLTCALTSGSVSTSYYPSWYQQTPGQPPRTLIYSTNLRSSGVPDRFSGSILGNKAALTITGAQADDESDYYCELYMGSGISVFGGGTKVTVLG | 0.0272 | – |
| PFA5 Fab (Fab, V domains shown, Printed entries run through CL and CH1 (Fab chains); Label A5 tied to PFA5 by inference) VH: QVQLVQSGAEVKKPGASVKVSCKASGYTFTSYAMHWVRQAPGQRLEWMGWINAGNGNTKYSQKFQGRVTITRDTSASTAYMELSSLRSEDTAVYYCARGGYLVGYWGQGTLVTVSS VL: not shown | 0.00326 | – |
